{
  "source": "patent US20120266264A1",
  "about": "(VANCOUVER BIOTECH, published 2012)",
  "binders": {"B1": {"name": "GHR-106 monoclonal antibody (antibody, V domains shown)", "VH": "QVQLKESGPGLVAPSQSLSITCTVSGFSLSRYSVHWVRQPPGKGLEWLGMIWGGGSTDYNSALKSRLSISKDNSKSQVFLKMNSLQTDDTAMYYCARGNDGYYSFAYWGQGTLVTVSS", "VL": "DIVMSQSPSSLAVSAGEKVTMSCKSSQSLLNSRTRKNYLAWYQQKPGQSPKLLIYWASTRESGVPDRFTGSGSGTDFTLTISSVQAEDLAVYYCKQSYNLYTFGGGTKLEIK", "notes": "Murine hybridoma monoclonal antibody raised against the KLH-coupled 1-29 peptide of human GnRH receptor; detected with goat anti-mouse IgG; also called ATCC PTA-10252"}, "B2": {"name": "synthetic peptide corresponding to the N-terminal 1-29 amino acid residues of human GnRH receptor (peptide)", "peptide": "MANSASPEQNQNHCSAINNSIPLMQGNLP", "notes": "Custom synthesized; also called 1-29 synthetic peptide; 1-29 peptide"}, "B3": {"name": "GHR-103 monoclonal antibody (antibody, V domains shown)", "VH": "B1 VH", "VL": "B1 VL", "notes": "Murine monoclonal"}},
  "key": {"human GnRH receptor": {"molecular_target": "T1, human GnRH receptor (human, UniProt P30968 1-328)", "T1 construct": "whole, on cells; Endogenous receptor on human cancer cell lines; also called GnRHR1; gonadotropin releasing hormone receptor", "T1 sequence (looked up)": "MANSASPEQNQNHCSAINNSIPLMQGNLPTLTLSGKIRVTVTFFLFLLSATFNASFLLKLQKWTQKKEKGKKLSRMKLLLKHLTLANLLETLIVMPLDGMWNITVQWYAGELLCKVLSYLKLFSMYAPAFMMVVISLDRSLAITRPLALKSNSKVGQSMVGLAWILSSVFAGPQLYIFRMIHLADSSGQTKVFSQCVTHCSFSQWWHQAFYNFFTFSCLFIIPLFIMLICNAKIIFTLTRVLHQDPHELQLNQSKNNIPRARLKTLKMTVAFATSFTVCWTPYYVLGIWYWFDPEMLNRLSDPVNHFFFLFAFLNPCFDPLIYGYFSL", "assay": "ELISA, microwells coated with 1-29 synthetic peptide or OC-3-VGH cancer cells, AP-labeled goat anti-mouse IgG"}, "[1]": {"molecular_target": "B2", "assay": "ELISA on coated peptide"}, "[2]": {"molecular_target": "B1", "assay": "competition cell ELISA, free peptide against GHR-106 on OC-3-VGH cells (FIG. 3B)"}, "[3]": {"molecular_target": "B2", "assay": "ELISA on coated peptide (FIG. 2A)"}},
  "data": [
    {"binder": "B1", "values": [
      {"measurement": "Kd", "setting": "human GnRH receptor", "value": 2, "unit": "nM"},
      {"measurement": "binding result", "setting": "[1]", "value": "binds"}
    ]},
    {"binder": "B2", "values": [
      {"measurement": "binding result", "setting": "[2]", "value": "binds"}
    ]},
    {"binder": "B3", "values": [
      {"measurement": "binding result", "setting": "[3]", "value": "binds"}
    ]}
  ]
}
